Measurements taken from patent US20250354131A1, “NOVEL GLYCOSYNTHASE” (CarboCode S.A., priority 2021, published 2025).
Numbering of substitutions follows the chain as printed. In names and notes the source's numbering stands.

B1: SEQ ID NO: 8: EGC synthase, E350S, D312Y, Δ1-24, N-term. His-Tag, Δ146-152; Rhodococcus sp. AQ5-07 (protein)
chain: MGHHHHHHMQGSLPTSGSAGGTDVPPSYLTDDAGRSLILRGFNTASSAKSEPEPGQYDQEYLDRVEDRVSWYAERGYKVMLDMHQDVYSGAITPEGNIGNGAPAWATYMDGLPVSPQDRWELYYIQPGVMRAFDNFWNTTGQHPELVEHYANAWQAVAERFAGNDTVVAYDLMNEPWGGSLQGPAFEGGPLAALYQRTTNAIREVDQDSWVCVAPQAVGVNQGVPSGLTKINDPRAGEQRIAYCPHLYPLPLDLGYGYSGLSRTLTDATIDTWRDSVEHIAGNVLGGVPVILASFGLDTTLPGATDYIDRVYATARELGAGVSYWSSDPGPWGPYLPDGTQTLLVDTLNRPYPRAVAGTPTEWSSSVDRLQLTFTPNPAVTAPTEIYLPESGFPGGVDVAGADIVNWNPQSRLLTVEAPDGMPKFTEADLEREHADMGTNFVRFLISWRSVTADDAGPVTVTVTPAS
modifications: N-terminal His-tag
B2: SEQ ID NO: 17: Reference EGC synthase, E351S, D314Y, A153T, Δ1-30, N-term. His-Tag; Rhodococcus sp. strain M-777 (protein)
chain: MGSSHHHHHHSSGLVPRGSHMSGSGSGSGTALTPSYLKDDDGRSLILRGFNTASSAKSAPDGMPQFTEADLAREYADMGTNFVRFLISWRSVEPAPGVYDQQYLDRVEDRVGWYAERGYKVMLDMHQDVYSGAITPEGNSGNGTGAIGNGAPAWATYMDGLPVEPQPRWELYYIQPGVMRAFDNFWNTTGKHPELVEHYAKAWRAVADRFADNDAVVAYDLMNEPFGGSLQGPAFEAGPLAAMYQRTTDAIRQVDQDTWVCVAPQAIGVNQGLPSGLTKIDDPRAGQQRIAYCPHLYPLPLDIGYGHEGLARTLTDVTIDAWRANTAHTARVLGDVPIILGSFGLDTTLPGARDYIERVYGTAREMGAGVSYWSSDPGPWGPYLPDGTQTLLVDTLNKPYPRAVAGTPTEWSSTSDRLQLTIEPDAAITAPTEIYLPEAGFPGDVHVEGADVVGWDRQSRLLTVRTPADSGNVTVTVTPAA
modifications: N-terminal His-tag
B3: SEQ ID NO: 5: EGC synthase, E350S, Δ146-152; Rhodococcus sp. AQ5-07 (protein)
chain: MRRIPLSALIVAGSLILGGGIAAAQGSLPTSGSAGGTDVPPSYLTDDAGRSLILRGFNTASSAKSAPDGMPKFTEADLEREHADMGTNFVRFLISWRSVEPEPGQYDQEYLDRVEDRVSWYAERGYKVMLDMHQDVYSGAITPEGNIGNGAPAWATYMDGLPVSPQDRWELYYIQPGVMRAFDNFWNTTGQHPELVEHYANAWQAVAERFAGNDTVVAYDLMNEPWGGSLQGPAFEGGPLAALYQRTTNAIREVDQDSWVCVAPQAVGVNQGVPSGLTKINDPRAGEQRIAYCPHLYPLPLDLGDGYSGLSRTLTDATIDTWRDSVEHIAGNVLGGVPVILASFGLDTTLPGATDYIDRVYATARELGAGVSYWSSDPGPWGPYLPDGTQTLLVDTLNRPYPRAVAGTPTEWSSSVDRLQLTFTPNPAVTAPTEIYLPESGFPGGVDVAGADIVNWNPQSRLLTVETADDAGPVTVTVTPAS
B4: SEQ ID NO: 4: EGC synthase, E350S, Δ1-24, N-term. His-Tag; Rhodococcus sp. AQ5-07 (protein)
chain: MGHHHHHHMQGSLPTSGSAGGTDVPPSYLTDDAGRSLILRGFNTASSAKSEPEPGQYDQEYLDRVEDRVSWYAERGYKVMLDMHQDVYSGAITPEGNSGNGAGNIGNGAPAWATYMDGLPVSPQDRWELYYIQPGVMRAFDNFWNTTGQHPELVEHYANAWQAVAERFAGNDTVVAYDLMNEPWGGSLQGPAFEGGPLAALYQRTTNAIREVDQDSWVCVAPQAVGVNQGVPSGLTKINDPRAGEQRIAYCPHLYPLPLDLGDGYSGLSRTLTDATIDTWRDSVEHIAGNVLGGVPVILASFGLDTTLPGATDYIDRVYATARELGAGVSYWSSDPGPWGPYLPDGTQTLLVDTLNRPYPRAVAGTPTEWSSSVDRLQLTFTPNPAVTAPTEIYLPESGFPGGVDVAGADIVNWNPQSRLLTVEAPDGMPKFTEADLEREHADMGTNFVRFLISWRSVTADDAGPVTVTVTPAS
modifications: N-terminal His-tag
B5: SEQ ID NO: 18: EGC synthase, E351S, D314Y, Δ1-30, N-term. His-Tag, Δ148-154; Rhodococcus sp. strain M-777 (protein)
chain: MGSSHHHHHHSSGLVPRGSHMSGSGSGSGTALTPSYLKDDDGRSLILRGFNTASSAKSAPDGMPQFTEADLAREYADMGTNFVRFLISWRSVEPAPGVYDQQYLDRVEDRVGWYAERGYKVMLDMHQDVYSGAITPEGAIGNGAPAWATYMDGLPVEPQPRWELYYIQPGVMRAFDNFWNTTGKHPELVEHYAKAWRAVADRFADNDAVVAYDLMNEPFGGSLQGPAFEAGPLAAMYQRTTDAIRQVDQDTWVCVAPQAIGVNQGLPSGLTKIDDPRAGQQRIAYCPHLYPLPLDIGYGHEGLARTLTDVTIDAWRANTAHTARVLGDVPIILGSFGLDTTLPGARDYIERVYGTAREMGAGVSYWSSDPGPWGPYLPDGTQTLLVDTLNKPYPRAVAGTPTEWSSTSDRLQLTIEPDAAITAPTEIYLPEAGFPGDVHVEGADVVGWDRQSRLLTVRTPADSGNVTVTVTPAA
modifications: N-terminal His-tag
B6: SEQ ID NO: 6: EGC synthase, E350S, Δ1-24, N-term. His-Tag, Δ146-152; Rhodococcus sp. AQ5-07 (protein)
chain: B1 chain with Y256D
modifications: N-terminal His-tag
B7: SEQ ID NO: 15: EGC synthase, E339S, Δ1-26; Rhodococcus hoagii 103S (SEQ ID NO: 14) (protein)
chain: MAPPATPITTLQADGTHLVDGYGRTVLLHGVNNVDKDAPYLPAGETLTPQDIDILVRHGFNTVRLGTSFDALMPQRGQIDEAYLDRLTGVVDALTARGMHVLLDNHQDGLSKAWGGNGFPEWAIESRPREWEPNPGFPLYYLMPSLNAGWDEVWGNTHGALDHLGTALGALAERVEGKPGVMGIELLNEPWPGSRFLSCFPNGCPDFDRTYQAAMQKLTDAVRAQNPTIPVYWEPNVTWNQMMPSNLFAPPVTPALTTADVVFAPHDYCIPSQLAIYLGLPQALRGLCVPQQDLTWSNIDAITERANVPTVITSFGDGDPTVLKNTLARADERFIGWQYWHFGAGNATDPFLGEVGRQLVRTYPQATAGEPGRMIFDADNGDFAYRFTPRAATRPTEIFVSDLHYPDGYAVQVDGGQVTSAPGARIVTVVADGSGPVTVKINRPGSAGAEVPDGPIETSSSGSSGSS

Assay: Km determination of EGC synthases with lactosyl fluoride and sphingosine (HPLC-ELSD)
Assay type: biochemical
Settings: Donor Lac-F, acceptor sphingosine; cell-free extract
Procedure: The assay mixture contained 1 M sodium acetate buffer at pH 5.5, 20 mg/mL sphingosine-base and EGCS enzyme. As a reference, EGC synthase of SEQ ID NO:17 was used. Six different concentrations of lactosyl fluoride (Lac-F) ranging from 5 mg/mL to 164 mg/mL were assayed. From every assay mixture, four time points were collected by quenching the reaction with 19× volume of DMSO. The samples were analyzed by HPLC-ELSD analysis and conversion rates were determined by linear regression.
For B1, the “U/mg CFE” value was 0.60 U/mg CFE.
In the case of B2, the “U/mg CFE” value is reported as 0.074 U/mg CFE.
With B3 the “U/mg CFE” value was 0.61 U/mg CFE.
In the case of B4, the “U/mg CFE” value is reported as 0.20 U/mg CFE.

Same assay, conditions: relative to reference SEQ ID NO: 17; donor Lac-F, acceptor sphingosine
In the case of B1, the “Fold improvement to reference” value is reported as 8.1.
For B2, the “Fold improvement to reference” value was 1.0.
In the case of B3, the “Fold improvement to reference” value is reported as 8.2.
In the case of B4, the “Fold improvement to reference” value is reported as 2.7.

Assay: Production of lactosyl-6-hydroxysphingosine: conversion rates of different enzymes
Assay type: biochemical
Settings: Time 1 h; 30 mg/mL 6-OH-Sph, 300 mg/mL Lac-F, 1 M NaOAc, pH 6.0, 37° C.
Procedure: Reaction contained: 30 mg/mL 6-OH-Sph, 300 mg/mL Lac-F, enzyme, 1 M NaOAc.
Reactions were executed at pH 6.0, 37° C. and 1500 rpm stirring. Product analysis was done by ELSD (% rel. conversion) and LC-MS using standard conditions for Lac-Sph analysis.
For B5, the “Conversion [% ELSD area product]” value was 99.3 % ELSD area product.
With B1 the “Conversion [% ELSD area product]” value was 100 % ELSD area product.
With B6 the “Conversion [% ELSD area product]” value was 100 % ELSD area product.
In the case of B7, the “Conversion [% ELSD area product]” value is reported as 3.7 % ELSD area product.
In the case of B2, the “Conversion [% ELSD area product]” value is reported as 99.4 % ELSD area product.

Same assay, conditions: Time 2 h; 30 mg/mL 6-OH-Sph, 300 mg/mL Lac-F, 1 M NaOAc, pH 6.0, 37° C.
In the case of B5, the “Conversion [% ELSD area product]” value is reported as 99.8 % ELSD area product.
In the case of B1, the “Conversion [% ELSD area product]” value is reported as 100 % ELSD area product.
For B6, the “Conversion [% ELSD area product]” value was 100 % ELSD area product.
For B7, the “Conversion [% ELSD area product]” value was 9.1 % ELSD area product.
In the case of B2, the “Conversion [% ELSD area product]” value is reported as 100 % ELSD area product.

Assay: Enzymatic conversion of lactosyl sphingoid bases with β-galactosidase
Assay type: biochemical
Settings: within about 48 to about 72 hours at about 37° C.; 1 M NaOAc pH 5.0, 5 g/L β-cyclodextrin, 5 g/L enzyme
Procedure: Enzymatic reactions were performed in 1 M NaOAc buffer (pH set to 5.0). A typical reaction mixture contained 50-100 g/L of lactosyl sphingoid base (synthesised according to the general procedure of Example 3 or Example 5), 5 g/L of β-cyclodextrin, 5 g/L of β-galactosidase (e.g. from A. oryzae). Typically, the reaction proceeds up to 99% conversion within about 48 to about 72 hours at about 37° C. and continuous stirring. The enzymatic reaction was followed by LCMS analysis (for methods and conditions see Example 9).
Samples (25 μL) were taken from reaction mixtures, mixed with DMSO (950 μL) and subjected to centrifugation (16.000 rpm, 5 min) and analyzed with a Shimadzu ECO 2020 LC system coupled with a Shimadzu LCMS-2020 system. The HPLC analysis was performed using a Merck Ascentis Express RP-Amide column (15 cm×4.6 mm, 2.7 μm). For analysis of compounds the eluent consisted of solvent D (2 mM ammonium formate, […], 75% v/v MeOH, 25% v/v ACN)-solvent C (2 mM formic acid in filtered ddH2O), and the following gradient was applied as stated in the table below. The flow rate was 1 mL/min. The MS analysis was performed under the following conditions: ESI positive ionization, vaporizer temperature 300° C.; LC-MS mode, 1:1 split of flow; ESI negative ionization, vaporizer temperature 300° C.; LC-MS mode, 1:1 split of flow.
In the case of β-galactosidase, the conversion is reported as “up to 99%”.
